Measurements from the nanobody polyreactivity screen of Harvey et al. (2022).

Experiment: yeast display, Sf9 membrane polyspecificity reagent, FACS + sequencing; frameworks hold sequencing errors
How it was run: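 Nanobodies came from a synthetic yeast display library in Saccharomyces cerevisiae BJ5465, induced with galactose for 36–48 hours and stained for 1 hour at 4 °C with 10% biotinylated, detergent-solubilized Sf9 membrane reagent. Cells were enriched on streptavidin microbeads and then FACS-sorted, with low and high (top ~1%) gates set on anti-HA fluorescence for expression and streptavidin fluorescence for reagent binding. Each polyreactivity label reflects the gate a clone came from. Genes were amplified by colony PCR, sequenced by MiSeq 2 × 250 and filtered by CDR length.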

| Sequence | polyreactivity (PSR sort gate) |
| --- | --- |
| QVQLVESGGGLVQAGGSLSLSCAASGLTFQEYAMRWYRQAPGKERELVAAISWSGGSTYYADSVKGRFTISRDNAKNTVYLQMNSLKPEDTAVYYCAAEAYEEYITGWYAYDYWGQGTQVTVSS | high polyreactivity |
| QVQLVESGGGLVQAGGSLSLSCAASGNTFPYYAMGWYRPAPGKERELVAAIRAGGGSTYYADSVKGRFTISRDNAKNTVYLQMNSLKPEDTAVYYCNADSDYNQYYLAVIHSILDYWGHGTQVTVSS | low polyreactivity |
| QVQLVESGGGLVQAGGSLSLSCAASGPTFTQNVMGWYRQAPGKERELVAGISSGDITNYADSVKGRFTISRDNAKNTVYLQMNSLKPEDTAVYFCTYYGKSGGYRYTYYYWGQGTQVTVSS | high polyreactivity |
| QVQLVESGGGLVQAGGSLSLSCAASGRIFAYYAMGWYRQAPGKERELVAAISGGGGSTYYADSVKGRFTISRDNAKNTVYLQMNSLKPEDTAVYYCAARYTVYSATGRYYYWGQGTQVTVSS | high polyreactivity |
| QVQLVESGGGLVQAGGSLSLSCAASGRIFPTYTMGWYRQAPGKERELVAAINRGGGSTYYADSVKGRFTISRDIAMNTVYLQMYSLKAEDTAVYYCNARTYYRSYGYDYCGQGTQVTVSS | low polyreactivity |
| QVQLVESGGGLVQAGGSLSLSCAASGRIFRRYAMGWYRQAPGKEREFVAAISYGGGSTYYADSVKGRFTISRDNAKNTVYLQMNSLKPEDTAVYYCNADVPKSLLLYYPWGYGYWGQGTQVTVSS | low polyreactivity |
| QVQLVESGGGLVQAGGSLSLSCAASGRIFVRNSMGWYRQEPGKETELVADITNGGSTNYADSVKGRFTISRDNAKNTVYLQMNSQKPEDTAVYYCAADTLGVYDGDYWGQGTQVTVSS | low polyreactivity |
| QVQLVESGGGLVQAGGSLSLSCAASGRIFVRNTMGWYRQAPGKERELVATISRRGGITYYADSVKGRFTISRDNAKNTVYLQMNSLKPEDTAVYYCAAESYSFWLYDYCGQGTQVTVSS | high polyreactivity |
| QVQLVESGGGLVQAGGSLSLSCAASGRIFYKYAMGWYRQAPGKESELVAAINTSGGRTYYADSVKGRFTISRDNAKNTVYLQMNSLKPEDTAVYYCKAVGSAYTAYDYWGQGTQVTVSS | high polyreactivity |
| QVQLVESGGGLVQAGGSLSLSCAASGRIFYRNAMGWYRQAPGKERELVAGITRGGSTNYADSVKGRFTISRDNAKNTVYLQMNSLKPEDTAVYYCAKAIPAKFYSEAGYDYWGQGTQVTVSS | low polyreactivity |
| QVQLVESGGGLVQAGGSLSLSCAASGRIFYRYAMGWYRQAPVKERELVAAISGSVGSTYADSVKGRFTISRDNAKNTVYLQMISLKPEDTAVYYCARETYRRYGAYDYWGQGTQVTVSS | low polyreactivity |
| QVQLVESGGGLVQAGGSLSLSCAASGRIFYVNTMGWYRQAPGKERELVATISSAASTNYADSVKGRFTISRDNAKNTVYLQMNSLKPEDTAVYYCNASRLSRLSALSGFYSWGQGTQVTVSS | low polyreactivity |
| QVQLVESGGGLVQAGGSLSLSCAASGRNFAYYAMGWYRQAPGKERELVAGISQRGSRTYYADSVKGRFTISRDNAKNTVYLQMNSLKPEDTAVYYCAARDRRSVTMDYWGQGTQVTVSS | high polyreactivity |
| QVQLVESGGGLVQAGGSLSLSCAASGRNFTIYAMGWYIQAPGKEREMVAGITRSGGRTYYADSVKGRFTISRDNAKNTVYLQMNSLKPEDTAVYYCNRVFYSGYRGQGHSYESWGQGTQVTVSS | high polyreactivity |
| QVQLVESGGGLVQAGGSLSLSCAASGRTFGAYAMGWYRQAPGKERELVATITVSGGSTYYADSVKGRFTISRDNAKNTVYLQMNSLKREDTAVYYCAAEWYPYPWGYGYWGQGTQVTVSS | low polyreactivity |
| QVQLVESGGGLVQAGGSLSLSCAASGRTFSANTMGWSRQAPGKERELVAAISKSGGSTYYADSVKGRFTISRDNAKNTVYLQMNSLKPEDTAVYYCAARTSGYWYSYGSWGQGTQVTVSS | high polyreactivity |
| QVQLVESGGGLVQAGGSLSLSCAASGRTFWLNSMGWYRQAPGKERELVATISSSSGSTTYADSVKGRFTISRDNAKNTVYLQMNSLKPEDTAVYYCAADWSDDVPGYDYWGQGTQVTVSS | low polyreactivity |
| QVQLVESGGGLVQAGGSLSLSCAASGRTFYRNAMGWYRQAPGKERELVAAISSDDSTNYADSVKGRFTISRDNAKNTVYLQMNSLKPEDTAVYYCNADYYYGYEYDYWGQGTQVTVSS | low polyreactivity |
| QVQLVESGGGLVQAGGSLSLSCAASGRTIAYYAMGWDRQAPGKEMEFVAAISSTGTSTYYADSVKGRFTISRDNAKNTVYLQMNSLKPEDTGVYYCNARVATYRLHSKFYYWGQRTQVTVSS | high polyreactivity |
| QVQLVESGGGLVQAGGSLSLSCAASGRTYYYNAMGWYRQAPGKERELVAAITFSGGTTSYADSEKGRFTISRDNAKNTVYLQMNRLKPEDTEVYYCAARGYWGQGTQVTVSW | high polyreactivity |
| QVQLVESGGGLVQAGGSLSLSCAASGSIFASNTMGWYRPAPGKERELVAGITKIGSSTYYADSVKGRFTISRDNAKNTVYLQMNSLKPEDTAVYYCNAYGPNIYSSRYDYWGQGTQVTVSS | low polyreactivity |
| QVQLVESGGGLVQAGGSLSLSCAASGSIFKFNTMGWSRQAPRKERELVAAISRSGGSTYYADSVKGRFTISRDNAKNNVYLQMNSLKPEDTAVYYCAARQFSGPYVRYGYWGQGTQVSVSS | high polyreactivity |
| QVQLVESGGGLVQAGGSLSLSCAASGSIFPHYAMGWYRQAPGKERELVAAISRSGTSTYYADSVKGRFTISRDNAKNTVYLQMNSLNPEDTAVYYCATGYRRDHDDYWGQGTQVTVSS | high polyreactivity |
| QVQLVESGGGLVQAGGSLSLSCAASGSIFWYNAMGWYRQAPGKERELVAGITSGGDTNYADSVKGRFTISRDNAKNTFYLQMNSLKPEDTAVYYCNTPSGPGNVGYYRRKWYGYWGQGTQVSVSS | low polyreactivity |
| QVQLVESGGGLVQAGGSLSLSCAASGSIFYYNAMGWYRQAPGKERELVAAITSSAITNYADSVKGRFTISRDNAKNTVYLQMKSRKPEDTAVYYCAGRITTRPRSTRKRVWVDYWGQGTQVTVSS | high polyreactivity |
| QVQLVESGGGLVQAGGSLSLSCAASGSTFDYYAMGWYRQAPGKEWELVADITYSGGSTYYADSVKGRFTISRDNAKNTVYLQMNSLKPEDTAVYYCNAYYTVYTRYDYWGQGTQVTVSS | high polyreactivity |
| QVQLVESGGGLVQAGGSLSLSCAASGSTFNHYAMGWYSPAPGKERELVAAISSRGGSTHYADSVKGRFTISRDNAKNTVYLQMNSLKPEDTAVYDCARDTDPQSSRSSDYDYWGQGTQVTVSS | low polyreactivity |
| QVQLVESGGGLVQAGGSLSLSCAASGSTFRHYAMGGYRQAPGKERELVAAISSRGGSTHYADSVKGRFTISRDNAKNTVYLQMNSLKPEDTAVYYCARDTDTQSSRSSDYDYWGQGTQVNVSS | low polyreactivity |
| QVQLVESGGGLVQAGGSLSLSCAASGSTFWVYAMGWYRQAPGKERELVATISRGGSTNYADSVKGRFTISRDNAKNTVYLQMNSLKPEDTAVYYCAAPRFYGYGYEYWGQGTQVTVSS | low polyreactivity |
| QVQLVESGGGLVQAGGSLSLSCAASGSTFYFNAMGWYRQAPGKERELVATIRSGDSTYYADSVKGRFTISRDNAKNTVYLQMNRLKPEDTAVYYCAAVSTYFSSTFTEYDYWGQGTQVTVST | low polyreactivity |
